Legend:
Assay in all cases: cell-based or functional assay
[1] = molecular target: HIV-1 Env of pseudovirus 620345.c01 (clade CRF01_AE) (HIV-1)
[2] = molecular target: HIV-1 Env of pseudovirus BJOX009000.02.4 (clade CRF01_AE) (HIV-1)
[3] = molecular target: HIV-1 Env of pseudovirus BJOX010000.06.2 (clade CRF01_AE (T/F)) (HIV-1)
[4] = molecular target: HIV-1 Env of pseudovirus BJOX025000.01.1 (clade CRF01_AE (T/F)) (HIV-1)
[5] = molecular target: HIV-1 Env of pseudovirus BJOX028000.10.3 (clade CRF01_AE (T/F)) (HIV-1)
[6] = molecular target: HIV-1 Env of pseudovirus C1080.c03 (clade CRF01_AE) (HIV-1)
[7] = molecular target: HIV-1 Env of pseudovirus CNE5 (clade CRF01_AE) (HIV-1)
[8] = molecular target: HIV-1 Env of pseudovirus R3265.c06 (clade CRF01_AE) (HIV-1)
[9] = molecular target: HIV-1 Env of pseudovirus X1193_c1 (clade G) (HIV-1)
[10] = molecular target: HIV-1 Env of pseudovirus 6244_13_B5_4576 (clade B (T/F)) (HIV-1)
[11] = molecular target: HIV-1 Env of pseudovirus CAP210.2.00.E8 (clade C) (HIV-1)
[12] = molecular target: HIV-1 Env of pseudovirus CAP45.2.00.G3 (clade C) (HIV-1)
[13] = molecular target: HIV-1 Env of pseudovirus CNE52 (clade BC) (HIV-1)
[14] = molecular target: HIV-1 Env of pseudovirus CNE53 (clade BC) (HIV-1)
[15] = molecular target: HIV-1 Env of pseudovirus Ce0393_C3 (clade C (T/F)) (HIV-1)
[16] = molecular target: HIV-1 Env of pseudovirus Ce1172_H1 (clade C (T/F)) (HIV-1)
[17] = molecular target: HIV-1 Env of pseudovirus Ce2010_F5 (clade C (T/F)) (HIV-1)
[18] = molecular target: HIV-1 Env of pseudovirus Ce703010054_2A2 (clade C (T/F)) (HIV-1)
[19] = molecular target: HIV-1 Env of pseudovirus Du172.17 (clade C) (HIV-1)
[20] = molecular target: HIV-1 Env of pseudovirus SC422661.8 (clade B) (HIV-1)
[21] = molecular target: HIV-1 Env of pseudovirus THRO4156.18 (clade B) (HIV-1)
[22] = molecular target: HIV-1 Env of pseudovirus ZM214M.PL15 (clade C) (HIV-1)
[23] = molecular target: HIV-1 Env of pseudovirus ZM247v1(Rev-) (clade C (T/F)) (HIV-1)
[24] = molecular target: HIV-1 Env of pseudovirus ZM53M.PB12 (clade C) (HIV-1)

Substance: 10E8 (antibody)
- IC50, titer in TZM.bl cells [1]: 0.455 µg/mL
- IC80, titer in TZM.bl cells [1]: 6 µg/mL
- IC50, titer in TZM.bl cells [2]: 1.57 µg/mL
- IC80, titer in TZM.bl cells [2]: 9.95 µg/mL
- IC50, titer in TZM.bl cells [3]: 0.341 µg/mL
- IC80, titer in TZM.bl cells [3]: 5.29 µg/mL
- IC50, titer in TZM.bl cells [4]: 0.107 µg/mL
- IC80, titer in TZM.bl cells [4]: 6.33 µg/mL
- IC50, titer in TZM.bl cells [5]: 0.665 µg/mL
- IC80, titer in TZM.bl cells [5]: 7.36 µg/mL
- IC50, titer in TZM.bl cells [6]: 0.061 µg/mL
- IC80, titer in TZM.bl cells [6]: 0.731 µg/mL
- IC50, titer in TZM.bl cells [7]: 1.41 µg/mL
- IC80, titer in TZM.bl cells [7]: 9.64 µg/mL
- IC50, titer in TZM.bl cells [8]: > 10 µg/mL
- IC80, titer in TZM.bl cells [8]: > 10 µg/mL
- IC50, titer in TZM.bl cells [9]: 0.497 µg/mL
- IC80, titer in TZM.bl cells [9]: 4.2 µg/mL

Substance: 10-1074 (antibody)
- IC50, titer in TZM.bl cells [1]: > 50 µg/mL
- IC80, titer in TZM.bl cells [1]: > 50 µg/mL
- IC50, titer in TZM.bl cells [2]: > 50 µg/mL
- IC80, titer in TZM.bl cells [2]: > 50 µg/mL
- IC50, titer in TZM.bl cells [3]: > 50 µg/mL
- IC80, titer in TZM.bl cells [3]: > 50 µg/mL
- IC50, titer in TZM.bl cells [4]: > 50 µg/mL
- IC80, titer in TZM.bl cells [4]: > 50 µg/mL
- IC50, titer in TZM.bl cells [5]: > 50 µg/mL
- IC80, titer in TZM.bl cells [5]: > 50 µg/mL
- IC50, titer in TZM.bl cells [6]: > 50 µg/mL
- IC80, titer in TZM.bl cells [6]: > 50 µg/mL
- IC50, titer in TZM.bl cells [7]: > 50 µg/mL
- IC80, titer in TZM.bl cells [7]: > 50 µg/mL
- IC50, titer in TZM.bl cells [9]: 0.083 µg/mL
- IC80, titer in TZM.bl cells [9]: 0.475 µg/mL

Substance: N49P18.1 (antibody)
- IC50 [10]: 33.4 µg/mL
- IC80 [10]: > 50 µg/mL
- MPI [10]: 61
- IC50 [11]: > 50 µg/mL
- IC80 [11]: > 50 µg/mL
- MPI [11]: 11
- IC50 [12]: 5.14 µg/mL
- IC80 [12]: 33.1 µg/mL
- MPI [12]: 88
- IC50 [13]: 2.46 µg/mL
- IC80 [13]: 6.65 µg/mL
- MPI [13]: 100
- IC50 [14]: 4.08 µg/mL
- IC80 [14]: 21.8 µg/mL
- MPI [14]: 97
- IC50 [15]: 10.3 µg/mL
- IC80 [15]: 24.8 µg/mL
- MPI [15]: 92
- IC50 [16]: 46.4 µg/mL
- IC80 [16]: > 50 µg/mL
- MPI [16]: 52
- IC50 [17]: 29 µg/mL
- IC80 [17]: > 50 µg/mL
- MPI [17]: 68
- IC50 [18]: 4.15 µg/mL
- IC80 [18]: 11.6 µg/mL
- MPI [18]: 98
- IC50 [19]: 6.52 µg/mL
- IC80 [19]: 21.3 µg/mL
- MPI [19]: 92
- IC50 [20]: 14.1 µg/mL
- IC80 [20]: 43.4 µg/mL
- MPI [20]: 84
- IC50 [21]: > 50 µg/mL
- IC80 [21]: > 50 µg/mL
- MPI [21]: 19
- IC50 [22]: > 50 µg/mL
- IC80 [22]: > 50 µg/mL
- MPI [22]: 20
- IC50 [23]: 10.9 µg/mL
- IC80 [23]: > 50 µg/mL
- MPI [23]: 79
- IC50 [24]: 1.3 µg/mL
- IC80 [24]: 4.51 µg/mL
- MPI [24]: 99

Substance: PG9 (antibody)
- IC50, titer in TZM.bl cells [1]: 1.33 µg/mL
- IC80, titer in TZM.bl cells [1]: > 50 µg/mL
- IC50, titer in TZM.bl cells [2]: 1.73 µg/mL
- IC80, titer in TZM.bl cells [2]: 8.21 µg/mL
- IC50, titer in TZM.bl cells [3]: 0.154 µg/mL
- IC80, titer in TZM.bl cells [3]: 0.74 µg/mL
- IC50, titer in TZM.bl cells [4]: 0.144 µg/mL
- IC80, titer in TZM.bl cells [4]: 0.335 µg/mL
- IC50, titer in TZM.bl cells [5]: 1.1 µg/mL
- IC80, titer in TZM.bl cells [5]: 21.5 µg/mL
- IC50, titer in TZM.bl cells [6]: 0.004 µg/mL
- IC80, titer in TZM.bl cells [6]: 0.013 µg/mL
- IC50, titer in TZM.bl cells [7]: 0.018 µg/mL
- IC80, titer in TZM.bl cells [7]: 0.051 µg/mL
- IC50, titer in TZM.bl cells [8]: 0.163 µg/mL
- IC80, titer in TZM.bl cells [8]: 0.535 µg/mL
- IC50, titer in TZM.bl cells [9]: 0.105 µg/mL
- IC80, titer in TZM.bl cells [9]: 0.304 µg/mL

Substance: N49P11 (antibody)
- IC50 [10]: 1.12 µg/mL
- IC80 [10]: 5.45 µg/mL
- MPI [10]: 100
- IC50 [11]: 5.12 µg/mL
- IC80 [11]: 19.4 µg/mL
- MPI [11]: 100
- IC50 [12]: 5.25 µg/mL
- IC80 [12]: 24 µg/mL
- MPI [12]: 100
- IC50 [13]: 0.06 µg/mL
- IC80 [13]: 0.307 µg/mL
- MPI [13]: 100
- IC50 [14]: 0.43 µg/mL
- IC80 [14]: 2.88 µg/mL
- MPI [14]: 100
- IC50 [15]: 1.51 µg/mL
- IC80 [15]: 9.71 µg/mL
- MPI [15]: 100
- IC50 [16]: 3.55 µg/mL
- IC80 [16]: 19.2 µg/mL
- MPI [16]: 100
- IC50 [17]: 0.38 µg/mL
- IC80 [17]: 3.27 µg/mL
- MPI [17]: 100
- IC50 [18]: 1.42 µg/mL
- IC80 [18]: 7.51 µg/mL
- MPI [18]: 100
- IC50 [19]: 5.65 µg/mL
- IC80 [19]: 17.9 µg/mL
- MPI [19]: 100
- IC50 [20]: 0.729 µg/mL
- IC80 [20]: 3.49 µg/mL
- MPI [20]: 100
- IC50 [21]: 1.84 µg/mL
- IC80 [21]: 10.4 µg/mL
- MPI [21]: 100
- IC50 [22]: 1.35 µg/mL
- IC80 [22]: 8.98 µg/mL
- MPI [22]: 100
- IC50 [23]: 7.48 µg/mL
- IC80 [23]: 21.5 µg/mL
- MPI [23]: 100
- IC50 [24]: 1.05 µg/mL
- IC80 [24]: 6.53 µg/mL
- MPI [24]: 100

Source: patent US20230002480A1
